Here are results for two molecules from article doi:10.1101/2022.09.29.510132 (bioRxiv, 2022).

One test deals with T1, E6AP AZUL (UniProt Q05086 24-87).
T1 construct: AZUL domain of E6AP/UBE3A; Used unlabeled or 15N-labeled; source: expressed and purified as described previously (Buel et al., 2020)
T1 sequence: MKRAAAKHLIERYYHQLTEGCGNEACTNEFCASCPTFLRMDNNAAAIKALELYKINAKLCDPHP
As to the kind of experiment: NMR titration; unlabeled UBQLN1 constructs added to 0.05 mM 15N-E6AP AZUL; 1H-15N HSQC; Buffer E (10 mM MOPS pH 6.5, 50 mM NaCl, 5 mM DTT, 10 μM zinc sulfate), 25 °C. The settings on record: both partners purified.

The next test concerns the target T2, UBQLN2 (UniProt Q9UHD9 1-624).
T2 construct: UBQLN2 full-length construct; Phase separates into droplets at 37 °C with 200 mM NaCl; also called UBQLN2 full-length; source: E. coli BL21 (DE3), purified (glutathione sepharose, PreScission cleavage, SEC); not shown: GST, N-terminal, cleaved
Description: recruitment to phase-separated droplets (confocal fluorescence microscopy, in vitro); 50 µM UBQLN2 construct with 25 µM AZUL-mEGFP or EGFP in 20 mM NaPO4, 200 mM NaCl, 2.5 µM ZnSO4 (pH 6.8) at 37 °C. The settings on record: both partners purified.

B1: UBQLN1 UBA (541-589) (domain or fragment, UniProt Q9UMX0 541-589, looked up)
chain: QNPEVRFQQQLEQLSAMGFLNREANLQALIATGGDINAAIERLLGSQPS
notes: The construct contains a tyrosine residue in the tag to enable quantitation at A280; source: E. coli BL21 (DE3), purified (glutathione sepharose, PreScission cleavage, SEC); not shown: GST, N-terminal, cleaved
Regarding B1, in the test with E6AP AZUL, the binding result is “binds”.

B2: AZUL-mEGFP (domain or fragment, UniProt Q05086 24-87, looked up)
chain: MKRAAAKHLIERYYHQLTEGCGNEACTNEFCASCPTFLRMDNNAAAIKALELYKINAKLCDPHP
notes: E6AP isoform II residues 24-87 (AZUL); AZUL and mEGFP are separated by a TEV protease cut site; A206K is numbered relative to avGFP (A207K relative to EGFP); also called E6AP isoform II 24-87 with a C-terminal mEGFP; source: E. coli BL21 (DE3), purified (glutathione sepharose, PreScission cleavage, SEC); not shown: GST, N-terminal, cleaved; mEGFP (EGFP with A206K), C-terminal, kept
Consider B2, for which the binding result in the test with UBQLN2 is on record as “binds”.
